Results as given in US20240132603A1 (HARBOUR BIOMED US, published 2024).

Target: T1, MMP16 (UniProt P51512 120-607)
T1 construct: whole, on cells; also called HEK293-MMP16
Experiment: flow cytometry, HEK293-MMP16 cells

T1 sequence (P51512 120-607): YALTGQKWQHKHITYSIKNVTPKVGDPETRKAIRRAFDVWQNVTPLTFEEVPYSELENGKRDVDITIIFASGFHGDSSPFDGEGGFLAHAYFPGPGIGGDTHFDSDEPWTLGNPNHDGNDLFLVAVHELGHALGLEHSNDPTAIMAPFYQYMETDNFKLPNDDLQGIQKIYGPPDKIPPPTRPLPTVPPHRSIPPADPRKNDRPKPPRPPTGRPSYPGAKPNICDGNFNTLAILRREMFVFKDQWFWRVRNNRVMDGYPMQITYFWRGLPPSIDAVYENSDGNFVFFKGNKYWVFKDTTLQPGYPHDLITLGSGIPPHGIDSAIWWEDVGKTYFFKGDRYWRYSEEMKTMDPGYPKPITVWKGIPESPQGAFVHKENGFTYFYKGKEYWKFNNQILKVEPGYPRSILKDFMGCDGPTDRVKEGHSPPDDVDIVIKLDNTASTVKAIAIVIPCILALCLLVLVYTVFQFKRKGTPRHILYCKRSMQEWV

B1: PR005565 (antibody, human IgG1, kappa)
heavy: not shown
light: DIVMTQSPLSLPVTLGQPASISCRSSKSLLHSNAKIYLYWFQQRPGQSPRLLIYRMSNLASGVPDRFSGSGSGTDFTLKISRVEAEDVGVYYCMQHLEYPLTFGQGTKLEIKRTVAAPSVFIFPPSDEQLKSGTASVVCLLNNFYPREAKVQWKVDNALQSGNSQESVTEQDSKDSTYSLSSTLTLSKADYEKHKVYACEVTHQGLSSPVTKSFNRGEC
notes: IgG1 constant region; same VH/VL as PR004666
- MFI: 146
